Data published in publication PMC2199173.

Molecular target: purified soluble human FasL (AL-1) (human)
Assay: SEC

Substance “purified soluble human FasL (AL-1) (ligand)” has a stoichiometry N of 3.
